The target in assay [1] is T1, human EGFR (human, UniProt P00533 25-645).
T1 construct: also called huEGFR; His-tagged human EGFR
Description: BLI (Octet), GNC on AHC sensor, antigen as analyte, 1:1 fit.

The target of another assay is T2, human CD19 (human, UniProt P15391 20-291).
T2 sequence (looked up): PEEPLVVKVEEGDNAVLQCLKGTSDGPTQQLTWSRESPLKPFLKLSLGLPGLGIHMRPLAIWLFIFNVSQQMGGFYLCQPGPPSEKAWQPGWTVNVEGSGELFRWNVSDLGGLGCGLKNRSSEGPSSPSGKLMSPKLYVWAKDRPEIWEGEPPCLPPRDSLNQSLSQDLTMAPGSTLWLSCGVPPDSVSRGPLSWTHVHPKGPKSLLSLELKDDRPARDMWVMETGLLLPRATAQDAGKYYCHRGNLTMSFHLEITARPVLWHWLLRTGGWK
Description: BLI (Octet), GNC on AHC sensor; strong binding, dissociation too slow to quantify KD. (In BLI a coated tip is dipped into the sample, and binding shifts an interference pattern.)

The target in a further assay is T3, human 4-1BB (human, UniProt Q07011 24-186).
T3 construct: Bought antigen; construct not described
Description: BLI (Octet), GNC on AHC sensor, 100 nM antigen as analyte, 1:1 fit.

For a further assay, the target named is T4, human PD-L1 (human, UniProt Q9NZQ7 19-238).
T4 construct: Bought antigen; construct not described
The assay is described as above.

The target in assay [2] is T1, human EGFR. Nature of the assay: BLI (Octet), GNC on AHC sensor, His-tagged human EGFR as analyte, global 1:1 fit.

B1: SI-55P9 (antibody, human IgG1, kappa)
heavy: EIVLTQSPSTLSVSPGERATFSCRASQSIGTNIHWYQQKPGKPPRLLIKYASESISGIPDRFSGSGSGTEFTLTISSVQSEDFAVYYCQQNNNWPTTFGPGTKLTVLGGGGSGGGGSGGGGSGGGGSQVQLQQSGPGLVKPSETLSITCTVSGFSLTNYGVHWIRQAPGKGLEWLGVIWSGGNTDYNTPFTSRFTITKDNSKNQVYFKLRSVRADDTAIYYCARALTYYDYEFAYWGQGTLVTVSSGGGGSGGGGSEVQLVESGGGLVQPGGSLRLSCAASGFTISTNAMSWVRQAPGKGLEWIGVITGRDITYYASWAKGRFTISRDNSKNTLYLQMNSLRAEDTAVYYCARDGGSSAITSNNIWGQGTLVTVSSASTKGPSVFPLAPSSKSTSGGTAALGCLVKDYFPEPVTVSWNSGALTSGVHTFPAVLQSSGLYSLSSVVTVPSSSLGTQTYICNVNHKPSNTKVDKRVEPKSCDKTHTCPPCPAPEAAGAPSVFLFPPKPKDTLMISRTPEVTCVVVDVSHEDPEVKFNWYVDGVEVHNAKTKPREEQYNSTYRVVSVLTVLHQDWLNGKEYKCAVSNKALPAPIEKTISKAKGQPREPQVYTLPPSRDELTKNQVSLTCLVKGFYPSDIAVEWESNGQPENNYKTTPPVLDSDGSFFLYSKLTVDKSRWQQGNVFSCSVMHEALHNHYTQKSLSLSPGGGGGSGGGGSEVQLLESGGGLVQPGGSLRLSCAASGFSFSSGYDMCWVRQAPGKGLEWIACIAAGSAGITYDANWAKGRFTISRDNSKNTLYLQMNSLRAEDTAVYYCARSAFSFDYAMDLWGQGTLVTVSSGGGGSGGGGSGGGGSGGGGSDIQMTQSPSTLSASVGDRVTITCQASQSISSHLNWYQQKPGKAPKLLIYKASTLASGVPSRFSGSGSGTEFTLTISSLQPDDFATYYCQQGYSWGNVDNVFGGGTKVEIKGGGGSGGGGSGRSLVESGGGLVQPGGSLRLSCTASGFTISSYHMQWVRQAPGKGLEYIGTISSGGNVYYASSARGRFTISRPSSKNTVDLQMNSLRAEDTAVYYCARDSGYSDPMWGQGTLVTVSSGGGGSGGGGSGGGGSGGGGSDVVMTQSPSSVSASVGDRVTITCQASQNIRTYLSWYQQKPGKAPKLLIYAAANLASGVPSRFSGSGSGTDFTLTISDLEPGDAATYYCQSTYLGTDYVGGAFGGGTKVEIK
light: ENVLTQSPASLSASPGERVTITCSASSSVSYMHWYQQKPGQAPKLWIYDTSKLASGVPSRFSGSGSGNDHTLTISSMEPEDFATYYCFQGSVYPFTFGQGTKVTVLGGGGSGGGGSGGGGSGGGGSQVTLKESGPGLVQPGQTLRLTCAFSGFSLSTSGMGVGWIRQPPGKGLEWLAHIWWDDDKRYNPALKSRLTISKDTSKNQVYLQMNSLDAEDTAVYYCARMELWSYYFDYWGQGTLVTVSSGGGGSGGGGSDVVMTQSPSTLSASVGDRVTINCQASESISSWLAWYQQKPGKAPKLLIYEASKLASGVPSRFSGSGSGTEFTLTISSLQPDDFATYYCQGYFYFISRTYVNSFGGGTKVEIKRTVAAPSVFIFPPSDEQLKSGTASVVCLLNNFYPREAKVQWKVDNALQSGNSQESVTEQDSKDSTYSLSSTLTLSKADYEKHKVYACEVTHQGLSSPVTKSFNRGEC
notes: Penta-specific: D1 humanized anti-EGFR H7 scFv, D2 CD3, D3 PD-L1, D4 4-1BB, D6 CD19
The Kd is the concentration at which binding is half-saturated. Read a low Kd as a tighter complex. Consider B1, for which the equilibrium dissociation constant (Kd) was determined as 7.41 nM in the assay with human EGFR [1], 7.55 nM with human 4-1BB, 0.407 nM in the assay with human PD-L1 and 7.41 nM with human EGFR [2]. For the same molecule, the binding result with human CD19 is “binds”.

The record behind these values is US20230002488A1 (SYSTIMMUNE, published 2023).
